Measured values: US20230192888A1

Assays:
[1] = target: human recombinant MMP-1 (human) (UniProt P03956); experiment: sandwich ELISA; capture MAB901, detection 1-8A12-HRP; MMP-1 5 ng/ml
[2] = target: human recombinant MMP-1 (human) (UniProt P03956); experiment: sandwich ELISA; capture MAB901, detection 1-8A12-HRP; MMP-1 10 ng/ml
[3] = target: human recombinant MMP-1 (human) (UniProt P03956); experiment: sandwich ELISA; capture MAB901, detection 1-8A12-HRP; MMP-1 2.5 ng/ml
[4] = target: human recombinant MMP-1 (human) (UniProt P03956); experiment: sandwich ELISA; capture MAB901, detection 1-8A12-HRP; MMP-1 1.25 ng/ml
[5] = target: human recombinant MMP-1 (human) (UniProt P03956); experiment: sandwich ELISA; capture MAB901, detection 1-8A12-HRP; MMP-1 0.156 ng/ml
[6] = target: human recombinant MMP-1 (human) (UniProt P03956); experiment: sandwich ELISA; capture MAB901, detection 1-8A12-HRP; MMP-1 0.313 ng/ml
[7] = target: human recombinant MMP-1 (human) (UniProt P03956); experiment: sandwich ELISA; capture MAB901, detection 1-8A12-HRP; MMP-1 0.625 ng/ml
[8] = target: endogenous MMP-1 in clinical saliva samples (human) (UniProt P03956); experiment: sandwich ELISA; capture MAB901, detection 1-8A12-HRP; saliva sample 8 (MMP-1 0 pg/ml)
[9] = target: endogenous MMP-1 in clinical saliva samples (human) (UniProt P03956); experiment: sandwich ELISA; capture MAB901, detection 1-8A12-HRP; saliva sample 4 (MMP-1 6.4 pg/ml)
[10] = target: endogenous MMP-1 in clinical saliva samples (human) (UniProt P03956); experiment: sandwich ELISA; capture MAB901, detection 1-8A12-HRP; saliva sample 6 (MMP-1 27.1 pg/ml)
[11] = target: endogenous MMP-1 in clinical saliva samples (human) (UniProt P03956); experiment: sandwich ELISA; capture MAB901, detection 1-8A12-HRP; saliva sample 5 (MMP-1 285.6 pg/ml)
[12] = target: endogenous MMP-1 in clinical saliva samples (human) (UniProt P03956); experiment: sandwich ELISA; capture MAB901, detection 1-8A12-HRP; saliva sample 7 (MMP-1 120.6 pg/ml)
[13] = target: endogenous MMP-1 in clinical saliva samples (human) (UniProt P03956); experiment: sandwich ELISA; capture MAB901, detection 1-8A12-HRP; saliva sample 2 (MMP-1 5041.1 pg/ml)
[14] = target: endogenous MMP-1 in clinical saliva samples (human) (UniProt P03956); experiment: sandwich ELISA; capture MAB901, detection 1-8A12-HRP; saliva sample 3 (MMP-1 1503.2 pg/ml)
[15] = target: endogenous MMP-1 in clinical saliva samples (human) (UniProt P03956); experiment: sandwich ELISA; capture MAB901, detection 1-8A12-HRP; saliva sample 1 (MMP-1 14821.9 pg/ml)

MAB901 (antibody)
OD value [1]: 1.19 OD | OD value [2]: 2.34 OD | OD value [3]: 0.544 OD | OD value [4]: 0.258 OD | OD value [5]: 0.027 OD | OD value [6]: 0.056 OD | OD value [7]: 0.119 OD | OD value [8]: -0.01 OD | OD value [9]: -0.019 OD | OD value [10]: 0.003 OD | OD value [11]: 0.045 OD | OD value [12]: 0.006 OD | OD value [13]: 0.883 OD | OD value [14]: 0.11 OD | OD value [15]: 2.69 OD
